According to patent US20250333496A1 (Novo Nordisk, published 2025):
Where a chain is given by its changes, count along the chain named.

B1: Polypeptide_15 (VHH)
VHH: QVQLQESGGGLVQAGGSLRLSCTASGGTFSEYAMAWFRQAPGKEREFVTDIGESGGTWYADSVKGRFTISRDNAKNTVYLQMNSLRPEDTAVYYCAADSYGVGGGAERYYDSWGQGTQVTVSS
notes: VHH_2.15 with C-terminal His tag extension E1; also called [VHH_2.15]-E1
B2: Polypeptide_35 (VHH)
VHH: B1 VHH with Q5V, S30G
notes: VHH_1.10 with C-terminal His tag extension E1; also called [VHH_1.10]-E1
B3: Polypeptide_10 (VHH)
VHH: QVQLQESGGGLVQAGGSLRLSCTVSGRTFSTYAMGWFRQAPGKEREFVADINWNSDNIWYADSVKGRFTISRDNAKNVMYLQMNSLKPEDTAVYYCAADSYGVGGGKEEYYDSWGQGTQVTVSS
notes: VHH_2.10 with C-terminal His tag extension E1; also called [VHH_2.10]-E1
B4: Polypeptide_17 (VHH)
VHH: B3 VHH with Q5V
notes: VHH_2.17 with C-terminal His tag extension E1; also called [VHH_2.17]-E1
B5: Polypeptide_13 (VHH)
VHH: B3 VHH with Q1E, Q5V, S17P
notes: VHH_2.13 with C-terminal His tag extension E1; also called [VHH_2.13]-E1
B6: Polypeptide_4 (VHH)
VHH: B3 VHH with I58L, V78T, A98V, E108P
notes: VHH_2.4 with C-terminal His tag extension E1; also called [VHH_2.4]-E1
B7: Polypeptide_3 (VHH)
VHH: QVQLQESGGGLVQAGGSLRLSCTTSGRTFSSYAMGWFRQAPGKEREFVADIGENADNRWYAHSVKGRFTISRDNAKNTVYLQMNSLKPEDTAVYYCAADRYGVGGGAQGYYDSWGQGTQVTVSS
notes: VHH_2.3 with C-terminal His tag extension E1; also called [VHH_2.3]-E1
B8: Polypeptide_1 (VHH)
VHH: B7 VHH with Q5V, G10D, A14P
notes: VHH_2.1 with C-terminal His tag extension E1; also called [VHH_2.1]-E1
B9: Polypeptide_16 (VHH)
VHH: B7 VHH with Q1E, Q5V, A14P, R19S, T24A
notes: VHH_2.16 with C-terminal His tag extension E1; also called [VHH_2.16]-E1
B10: Polypeptide_14 (VHH)
VHH: B7 VHH with V2L, Q5V, L11S, A14V, G16D, T24F, T28S, R58T, R100S
notes: VHH_2.14 with C-terminal His tag extension E1; also called [VHH_2.14]-E1
B11: Polypeptide_7 (VHH)
VHH: B7 VHH with Q1E, Q5V, G10R, L11W, A14P, G16A
notes: VHH_2.7 with C-terminal His tag extension E1; also called [VHH_2.7]-E1
B12: Polypeptide_33 (VHH)
VHH: B7 VHH with Q1E, Q5V, A14P, M34V, R58T, R100S
notes: VHH_1.9 with C-terminal His tag extension E1; also called [VHH_1.9]-E1
B13: Polypeptide_11 (VHH)
VHH: EVQLVESGGGLVQAGGSLRLSCTASGRSFSSYAMGWFRQAPGKEREFVADIGVNPDNTWYADSAKGRFTISRDNAKNTMYLQMNSLKPEDTAVYYCAADSYGVGGGAERYYDSWGQGTQVTVSS
notes: VHH_2.11 with C-terminal His tag extension E1; also called [VHH_2.11]-E1
B14: Polypeptide_8 (VHH)
VHH: QVQLVESGGGLVQPGGSLRLSCAASGFTFSSYWMYWVRQAPGKGLEWVSGINTGGSTPDYADSVKGRFTISRDNAKNTLYLQMNSLRPEDTAVYYCAADTPRSFRLNHYSPLGQGTQVTVSS
notes: VHH_2.8 with C-terminal His tag extension E1; also called [VHH_2.8]-E1
B15: Polypeptide_18 (VHH)
VHH: B14 VHH with Q1E, S31N, T69A, S103V, N107D
notes: VHH_1.16 with C-terminal His tag extension E1; also called [VHH_1.16]-E1
B16: Polypeptide_2 (VHH)
VHH: B14 VHH with Q1E, S31N, G66D, E89A, S110A
notes: VHH_2.2 with C-terminal His tag extension E1; also called [VHH_2.2]-E1
B17: Polypeptide_5 (VHH)
VHH: B14 VHH with V2L, S31N, S103V, N107D
notes: VHH_2.5 with C-terminal His tag extension E1; also called [VHH_2.5]-E1
B18: Polypeptide_9 (VHH)
VHH: B14 VHH with S31N, N52D, G54R, N77S, L79F, A98T, N107Y, S110V
notes: VHH_2.9 with C-terminal His tag extension E1; also called [VHH_2.9]-E1
B19: Polypeptide_12 (VHH)
VHH: QVQLVESGGGLVQAGGSLRLSCTTSGRTFSSYAMAWFRQAPGKDREFVADIGENSDNIWYADSVKGRFTISRDNAKNTILLQMNSLKPEDTAVYYCAADSYGVGGGKPEYYDSWGQGAQVTVSS
notes: VHH_2.12 with C-terminal His tag extension E1; also called [VHH_2.12]-E1
B20: Polypeptide_6 (VHH)
VHH: B19 VHH with V5Q, S31D, E53T, D56E, I58T, D62E, A75T, L80Y, P108Q
notes: VHH_2.6 with C-terminal His tag extension E1; also called [VHH_2.6]-E1
B21: Polypeptide_57 (VHH)
VHH: EVQLVESGGGLVQPGGSLKLSCTTSGRRFSEYAVGWFRQAPGKEREFVADIGEQAENTWYAESVKGRFTISRDDAKNTVYLEMDGLKPEDTAVYYCAADKYGVGGNAQGYYDSWGQGTQVTVSS
B22: Polypeptide_58 (VHH)
VHH: B21 VHH with K65L, D74N
B23: Polypeptide_62 (VHH)
VHH: B21 VHH with K65L, N106G
B24: Polypeptide_60 (VHH)
VHH: B21 VHH with K65L, G85S
B25: Polypeptide_59 (VHH)
VHH: B21 VHH with K65L, D84N
B26: Polypeptide_61 (VHH)
VHH: B21 VHH with K65L, K100S

Target: T1, human IL-6 (mature hIL-6) (human, UniProt P05231 30-212)
T1 construct: also called the antigen
Test: SPR (format not stated)

T1 sequence (P05231 30-212): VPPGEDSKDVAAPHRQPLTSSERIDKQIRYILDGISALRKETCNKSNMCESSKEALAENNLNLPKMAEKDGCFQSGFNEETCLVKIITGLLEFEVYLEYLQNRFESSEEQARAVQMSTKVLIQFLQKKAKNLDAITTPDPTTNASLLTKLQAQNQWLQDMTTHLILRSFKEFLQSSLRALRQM

Kd [nM]	Binder
0.001	B1
0.001	B2
1.03	B3
0.257	B4
0.001	B5
1.46	B6
0.872	B7
0.627	B8
0.001	B9
0.396	B10
0.631	B11
0.358	B12
0.0701	B13
0.816	B14
0.705	B15
1.31	B16
0.696	B17
0.903	B18
0.001	B19
1.52	B20

Target: T1, human IL-6 (mature hIL-6)
Test: cell-based or functional assay

IC50 (nM), STAT3-luc reporter gene assay [nM]	Relative IC50 to Reference Polypeptide_29 [fold]	Binder
0.08	2.3	B21
0.047	1.4	B22
0.13	3.8	B23
0.057	1.7	B24
0.043	1.2	B25
0.054	1.6	B26

Target: T1, human IL-6 (mature hIL-6)
Test: cell-based or functional assay
Remark: another data set of the same source

IC 50 (nM), reporter gene assay, 0% HSA [nM]	IC 50 (nM), reporter gene assay, 1% HSA [nM]	Binder
0.02	0.02	B15

Target: T1, human IL-6 (mature hIL-6)
Test: cell-based or functional assay
Remark: another data set of the same source

Reporter gene-assay [pM]	Binder
16.8	B1
24.6	B2
114	B3
84.1	B4
80.9	B5
198	B6
39.8	B7
47.4	B8
52.4	B9
72.9	B10
42.1	B11
62.1	B12
98.2	B13
36.8	B14
18.5	B15
20.7	B16
23.2	B17
33.7	B18
77.4	B19
73.4	B20
